This is an account of results in article PMC4323994.

Holding throughout (test): ELISA
(An ELISA detects its analyte on a solid surface through an enzyme-linked reagent.)

Assay [1] concerns the target HLA-DR molecule, DRB1*1501 (human).
Assay [2] has as its target HLA-DR molecule, DRB1*0701 (human).
In assay [3] the target is HLA-DR molecule, DRB1*0101 (human).

Where no end group is shown, it is not given here.

As to GKQLYNVEATSYALLALLQLKDFD (also: amino and carboxyl ends blocked) [C3d_(223–246)], the IC50 (in general, the concentration that inhibits the measured activity by half) in assay [1] was 85100 nM; in assay [2], < 2000 nM; in assay [3], < 2000 nM.
For the molecule GKQLYNVEATSYALL (also: amino and carboxyl ends blocked) [C3d_(223–237) wild type peptide (sequence overlapping the P28 peptide segment and C3d_(223–246))], the IC50 in assay [3] was determined as 365 nM.
Regarding QATFMVFQALAQYQKDAP (also: amino and carboxyl ends blocked) [C3d_(269–286)], the figures for the IC50 in assay [1], in assay [2] and in assay [3] were > 100000 nM, 2450 nM and 5630 nM, respectively.
